From US20250002564A1 (HOSPITAL FOR SICK CHILDREN, published 2025)
Residue numbers refer to the chain shown, from its start. Values joined by “and” are separate entries in the source; they are usually repeats but may differ in a detail not shown here. Equal entries are not always repeated. Where two headings read alike, the source gives them in different places.

B1: mAb 349 (antibody, V domains shown)
VH: EVQLLESGGGLVQPGGSLRLSCAASGFTFSNYGMHWVRQAPGKGLEWVSGISSAGSITNYADSVKGRFTISRDNSKNTLYLQMNSLRAEDTAVYYCAGNHAGTTVTSEYFQHWGQGTLVTVSS
VL: DIQMTQSPSSLSASVGDRVTITCRASQSISSWLAWYQQKPGKAPKLLIYDTSNLETGVPSRFSGSGSGTDFTLTISSLQPEDFATYYCQQSYTTPWTFGQGTRLEIKR
notes: also called IgG 349; Antibody 349
B2: mAb 108 (antibody, V domains shown)
VH: QVQLVQSGAEVKKPGASVKVSCKASGYIFSRYAIHWVRQAPGQGLEWMGWMNPISGNTDYAPNFQGRVTMTRDTSTSTVYMELSSLRSEDTAVYYCAKDGSQLAYLVEYFQHWGQGTLVTVSS
VL: B1 VL with S28V, S30T, S31N, W32N, T51A, N53T, T94F, W96Y, R103K, L104V
B3: mAb 46 (antibody, V domains shown)
VH: EVQLLESGGGLVQPGRSLRLSCAASGFTFSSYAMSWVRQAPGKGLEWVSTIYSGGSTYYADSVKGRFTISRDNSKNTLYLQMNSLRAEDTAVYYCARGDSRDAFDIWGQGTMVTVSS
VL: B1 VL with T51A, T93S, W96F, Q100P, R103K, L104V, E105D
notes: also called IgG 46; Antibody 46
B4: mAb 160 (antibody, V domains shown)
VH: QVQLVQSGAEVKKPGASVKVSCKASGYTFTGHDMHWVRQAPGQGLEWMGIINPSGGSTSYAQKFQGRVTMTRDTSTSTVYMELSSLRSEDTAVYYCARANSLRYYYGMDVWGQGTMVTVSS
VL: B1 VL with I29V, D50A, T51A, N53S, E55Q, T56S, S91G, W96Y, R103K
notes: also called IgG 160; Antibody 160
B5: mAb 120 (antibody, V domains shown)
VH: QVQLVQSGAEVKKPGASVKVSCKASGYTFTSYDINWVRQAPGQGLEWMGMIDPSGGSTSYAQKFQGRVTMTRDTSTSTVYMELSSLRSEDTAVYYCAKDFGGGTRYDYWYFDLWGRGTLVTVSS
VL: EIVMTQSPATLSVSPGERATLSCRASQSVSSRYLAWYQQKPGQAPRLLIYGASTRATGIPARFSGSGSGTEFTLTISSLQSEDFAVYYCQQYYTTPRTFGQGTRLEIKR
notes: also called IgG 120; Antibody 120
B6: mAb 254 (antibody, V domains shown)
VH: EVQLLESGGGLVQPGGSLRLSCAASGFTFSSSAMHWVRQAPGKGLEWVSAIGTGGDTYYADSVKGRFTISRDNSKNTLYLQMNSLRAEDTAVYYCAREGDGYNFYFDYWGQGTLVTVSS
VL: DIQMTQSPSSLSASVGDRVTITCRASQGISSYLAWYQQKPGKAPKLLIYDASSLQIGVPSRFSGSGSGTDFTLTISSLQPEDFATYYCLQSYSTPPWTFGQGTKVEIKR
notes: also called IgG 254; Antibody 254
B7: mAb 128 (antibody, V domains shown)
VH: QVQLVQSGAEVKKPGASVKVSCKASGYTFTHYYMHWVRQAPGQGLEWMGIINPSSSSASYSQKFQGRVTMTRDTSTSTVYMELSSLRSEDTAVYYCARDGRYGSGSYPFDYWGQGTLVTVSS
VL: DIQMTQSPSSLSASVGDRVTITCRASQNISRYLNWYQQKPGKAPKLLIYDASNLETGVPSRFSGSGSGTDFTLTISSLQPEDFATYYCQQANGFPPTFGQGTKLEIKR
B8: mAb 82 (antibody, V domains shown)
VH: QVQLVQSGAEVKKPGASVKVSCKASGGSFSTSAFYWVRQAPGQGLEWMGWINPYTGGTNYAQKFQGRVTMTRDTSTSTVYMELSSLRSEDTAVYYCARSRALYGSGSYFDYWGQGTLVTVSS
VL: B7 VL with N28V, R31N, N34A, A91S, N92F, G93S, F94P, K103R
notes: also called IgG 82; Antibody 82
B9: mAb 324 (antibody, V domains shown)
VH: QVQLVQSGAEVKKPGASVKVSCKASGGTFNNYGISWVRQAPGQGLEWMGWMNPNSGNTGYAQKFQGRVTMTRDTSTSTVYMELSSLRSEDTAVYYCARVGDYGDYIVSPFDLWGRGTLVTVSS
VL: B7 VL with N28S, S30T, R31T, A91S, N92Y, G93S, F94T, L104V
notes: also called IgG 324; Antibody 324
B10: mAb 158 (antibody, V domains shown)
VH: QVQLVQSGAEVKKPGASVKVSCKASGYTFTGYYMHWVRQAPGQGLEWMGWINPLNGGTNFAPKFQGRVTMTRDTSTSTVYMELSSLRSEDTAVYYCARDPGGSYSNDAFDIWGQGTLVTVSS
VL: B7 VL with N28S, T56S, G93S, P96L, Q100G, L104V, E105D
notes: also called IgG 158; Antibody 158
B11: mAb 64 (antibody, V domains shown)
VH: EVQLLESGGGLVQPGGSLRLSCAASGFPFSQHGMHWVRQAPGKGLEWVSAIDRSGSYIYYADSVKGRFTISRDNSKNTLYLQMNSLRAEDTAVYYCARDTYGGKVTYFDYWGQGTLVTVSS
VL: B1 VL with S28G, W32H, T51A, S91T, T93S, R103K, L104V
notes: also called IgG 64; Antibody 64
B12: mAb 56 (antibody, V domains shown)
VH: QVQLVQSGAEVKKPGASVKVSCKASGYTFTSYGISWVRQAPGQGLEWMGWISAYNGNTNYAQKLQGRVTMTRDTSTSTVYMELSSLRSEDTAVYYCARDIGPIDYWGQGTLVTVSS
VL: B7 VL with N28G, R31S, N34A, E55Q, T56S, G93S, P96S, L104V
notes: also called IgG 56; Antibody 56
B13: mAb 52 (antibody, V domains shown)
VH: QVQLVQSGAEVKKPGSSVKVSCKASGYTFTSYGISWVRQAPGQGLEWMGGIIPMFGTTNYAQKFQGRVTITADKSTSTAYMELSSLRSEDTAVYYCARDRGDTIDYWGQGTLVTVSS
VL: DIQMTQSPSSLSASVGDRVTITCRASQGISNNLNWYQQKPGKAPKLLIYAASSLESGVPSRFSGSGSGTDFTLTISSLQPEDFATYYCQQGNGFPLTFGPGTKVDIKR
notes: also called IgG 52; Antibody 52
B14: mAb 178 (antibody, V domains shown)
VH: QVQLVQSGAEVKKPGASVKVSCKASGYTFTDYHMHWVRQAPGQGLEWMGWINPNSGGTNYAQKFQGRVTMTRDTSTSTVYMELSSLRSEDTAVYYCARDISSWYEITKFDPWGQGTLVTVSS
VL: EIVMTQSPATLSVSPGERATLSCKASQSVSGTYLAWYQQKPGQAPRLLIYGASTRATGIPARFSGSGSGTEFTLTISSLQSEDFAVYYCLQTHSYPPTFGQGTKVEIKR
notes: also called IgG 178; Antibody 178
B15: mAb 368 (antibody, V domains shown)
VH: QVQLVQSGAEVKKPGSSVKVSCKASGYTFTSYDINWVRQAPGQGLEWMGAIMPMFGTANYAQKFQGRVTITADESTSTAYMELSSLRSEDTAVYYCARGSSGYYYGWGQGTLVTVSS
VL: not shown
B16: mAb 236 (antibody, V domains shown)
VH: QVQLVQSGAEVKKPGASVKVSCKASGGTFTSYGINWVRQAPGQGLEWMGWMNPNSGNTGYAQKFQGRVTMTRDTSTSTVYMELSSLRSEDTAVYYCASRGIQLLPRGMDVWGQGTTVTVSS
VL: not shown
notes: also called IgG 236; Antibody 236
B17: mAb 192 (antibody, V domains shown)
VH: QVQLVQSGAEVKKPGSSVKVSCKASGGTFSSYAISWVRQAPGQGLEWMGWINPNSGGANYAQKFQGRVTITADESTSTAYMELSSLRSEDTAVYYCSTYYYDSSGYSTDYWGQGTLVTVSS
VL: DIVMTQSPLSLPVTPGEPASISCRSSQSLLHSNGYNYLDWYLQKPGQSPQLLIYAASSLQSGVPDRFSGSGSGTDFTLKISRVEAEDVGVYYCMQALQTPYTFGQGTKLEIKR
B18: mAb 180 (antibody, V domains shown)
VH: QVQLVQSGAEVKKPGSSVKVSCKASGYTFTSYAMHWVRQAPGQGLEWMGRISPRSGGTKYAQRFQGRVTITADESTSTAYMELSSLRSEDTAVYYCAREAVAGTHPQAGDFDLWGRGTLVTVSS
VL: B17 VL with M94Q, A96Y, L97Y, Q98S, T99S
B19: 4A8 IgG (antibody, V domains shown)
VH: EVQLVESGAEVKKPGASVKVSCKVSGYTLTELSMHWVRQAPGKGLEWMGGFDPEDGETMYAQKFQGRVTMTEDTSTDTAYMELSSLRSEDTAVYYCATSTAVAGTPDLFDYYYGMDVWGQGTTVTVSS
VL: EIVMTQSPLSSPVTLGQPASISCRSSQSLVHSDGNTYLSWLQQRPGQPPRLLIYKISNRFSGVPDRFSGSGAGTDFTLKISRVEAEDVGVYYCTQATQFPYTFGQGTKVDIK
notes: also called IgG 4A8

Columns and labels:
Assay in all cases: cell-based or functional assay
[1] = target: T1, SARS-CoV-2 Spike on wild-type pseudotyped virus (PsV) (SARS-CoV-2, UniProt P0DTC2 14-1273)
[2] = target: T1, SARS-CoV-2 Spike on wild-type …; remark: listed apart in the source
[3] = target: Spike of authentic SARS-CoV-2/SB2-P4-PB virus (SARS-CoV-2, UniProt P0DTC2 14-1273)
[4] = target: T1, SARS-CoV-2 Spike on wild-type …; remark: listed apart in the source

Binder | Median IC50 [1] | IC50 SARS-CoV2 PsV (IgG) [2] [µg/mL] | IC50 SARS-CoV2/SB2-P4-PB (IgG) [3] [µg/mL] | Median IC50 [4]
B1 | > 50 µg/mL and > 333 nM | > 50 | – | –
B2 | > 50 µg/mL and > 333 nM | > 50 | – | –
B3 | 2.1 µg/mL and 14 nM | 2.1 | 19 | –
B4 | > 50 µg/mL and > 333 nM | > 50 | – | –
B5 | > 50 µg/mL and > 333 nM | > 50 | – | –
B6 | > 50 µg/mL and > 333 nM | > 50 | – | –
B7 | > 50 µg/mL and > 333 nM | > 50 | – | –
B8 | 1.6 µg/mL and 11 nM | 1.6 | – | –
B9 | 0.78 µg/mL and 5.2 nM | 0.78 | 21 | –
B10 | > 50 µg/mL and > 333 nM | > 50 | – | –
B11 | > 50 µg/mL and > 333 nM | > 50 | – | –
B12 | > 50 µg/mL and > 333 nM | > 50 | – | –
B13 | 0.61 µg/mL and 4.1 nM | 0.55 | 6.2 | –
B14 | > 50 µg/mL and > 333 nM | > 50 | – | –
B15 | > 50 µg/mL and > 333 nM | > 50 | – | –
B16 | 0.057 µg/mL and 0.38 nM | 0.057 | 5.5 | –
B17 | > 50 µg/mL and > 333 nM | > 50 | – | –
B18 | > 50 µg/mL and > 333 nM | > 50 | – | –
B19 | – | – | – | > 100 µg/mL and > 0.66 µM
